# Reference: IntAct's records for PubMed 20676127
# B1: Inhibitor of growth protein 2 (Homo sapiens), Q9H160 (parent)
# chain: MLGQQQQQLYSSAALLTGERSRLLTCYVQDYLECVESLPHDMQRNVSVLRELDNKYQETLKEIDDVYEKYKKEDDLNQKKRLQQLLQRALINSQELGDEKIQIVTQMLELVENRARQMELHSQCFQDPAESERASDKAKMDSSQPERSSRRPRRQRTSESRDLCHMANGIEDCDDQPPKEKKSKSAKKKKRSKAKQEREASPVEFAIDPNEPTYCLCNQVSYGEMIGCDNEQCPIEWFHFSCVSLTYKPKGKWYCPKCRGDNEKTMDKSTEKTKKDRRSR
# partner: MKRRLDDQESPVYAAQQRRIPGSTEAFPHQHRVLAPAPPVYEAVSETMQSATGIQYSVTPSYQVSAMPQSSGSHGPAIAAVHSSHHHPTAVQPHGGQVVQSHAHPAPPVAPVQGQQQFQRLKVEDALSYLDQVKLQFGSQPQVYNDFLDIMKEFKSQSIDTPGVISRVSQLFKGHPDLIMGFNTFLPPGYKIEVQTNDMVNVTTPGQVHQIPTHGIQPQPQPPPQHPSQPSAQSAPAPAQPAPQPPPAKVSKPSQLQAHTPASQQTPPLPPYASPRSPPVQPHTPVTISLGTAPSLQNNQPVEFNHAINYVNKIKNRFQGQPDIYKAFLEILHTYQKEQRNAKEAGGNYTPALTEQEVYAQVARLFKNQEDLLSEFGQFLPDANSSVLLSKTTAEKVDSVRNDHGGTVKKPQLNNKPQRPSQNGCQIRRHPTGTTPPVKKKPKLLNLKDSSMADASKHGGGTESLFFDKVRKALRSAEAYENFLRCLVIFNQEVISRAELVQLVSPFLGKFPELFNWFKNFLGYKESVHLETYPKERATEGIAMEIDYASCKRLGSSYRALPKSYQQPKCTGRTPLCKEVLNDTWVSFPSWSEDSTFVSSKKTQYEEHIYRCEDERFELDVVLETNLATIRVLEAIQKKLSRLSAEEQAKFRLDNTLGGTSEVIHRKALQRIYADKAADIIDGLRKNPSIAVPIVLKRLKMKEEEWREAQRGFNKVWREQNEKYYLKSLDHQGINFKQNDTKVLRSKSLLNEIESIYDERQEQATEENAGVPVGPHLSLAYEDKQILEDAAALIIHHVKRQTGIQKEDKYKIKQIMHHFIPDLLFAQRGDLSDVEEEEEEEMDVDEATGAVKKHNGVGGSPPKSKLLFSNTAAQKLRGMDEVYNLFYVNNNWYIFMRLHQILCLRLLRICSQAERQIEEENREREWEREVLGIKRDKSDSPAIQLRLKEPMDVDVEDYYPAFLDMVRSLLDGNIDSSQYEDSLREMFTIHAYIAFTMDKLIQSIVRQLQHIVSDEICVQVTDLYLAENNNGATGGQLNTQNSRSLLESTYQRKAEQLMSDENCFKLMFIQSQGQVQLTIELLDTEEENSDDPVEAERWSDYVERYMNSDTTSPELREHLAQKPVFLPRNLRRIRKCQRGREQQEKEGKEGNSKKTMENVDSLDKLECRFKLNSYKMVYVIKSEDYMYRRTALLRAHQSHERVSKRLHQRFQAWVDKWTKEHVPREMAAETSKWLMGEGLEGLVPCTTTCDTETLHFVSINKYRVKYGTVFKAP
# Variants of: B1
# Settings: with sin3a_human SIN3A
row,effect of a mutation on the interaction,Variant
1,decreasing interaction,MLGQQQQQLYSSAALLTGERSRLLTCYVQDYLECVESLPHDMQRNVSVLRELDNKYQETLKEIDDVYEKYKKEDDLNQKKRLQQLLQRALINSQELGDEKIQIVTQMLELVENRARQMELHSQCFQDPAESERASDKAKMDSSQPERSSRRPRRQRTSESRDLCHMANGIEDCDDQPPKEKKSKSAKKKKRSKARQEREASPVEFAIDPNEPTYCLCNQVSYGEMIGCDNEQCPIEWFHFSCVSLTYKPKGKWYCPKCRGDNEKTMDKSTEKTKKDRRSR [K195R]
2,decreasing interaction,MLGQQQQQLYSSAALLTGERSRLLTCYVQDYLECVESLPHDMQRNVSVLRELDNKYQETLKEIDDVYEKYKKEDDLNQKKRLQQLLQRALINSQELGDEKIQIVTQMLELVENRARQMELHSQCFQDPAESERASDKAKMDSSQPERSSRRPRRQRTSESRDLCHMANGIEDCDDQPPKEKKSKSAKKKKRSKAKQAREASPVEFAIDPNEPTYCLCNQVSYGEMIGCDNEQCPIEWFHFSCVSLTYKPKGKWYCPKCRGDNEKTMDKSTEKTKKDRRSR [E197A]
